In the RNAGym collection of RNA variant scans (doi:10.7554/elife.80360) one finds self-cleavage data, which are given here for 54 variants.

To fix the notation:
B1: Twister Ribozyme (parent)
chain: AACACUGCCAAUGCCGGUCCCAAGCCCGGAUAAAAGUGGAGGGGGCGG

In the series the parent is B1. The experiment in a line: self-cleavage, relative activity (ratio to wild type); higher = more cleavage; co-transcriptional.
Consider AACACUGCCAAUGCCGGUCACAAGCCCGGAUAAAAGUGGAGGGGGCAG [C20A G47A], for which the self-cleavage is 0.0961.
For the variant AACACUGCCAAUGCCGGUCCCCAGCCCGGAUAAAAGUAGAGGGGGCGG [A22C G38A], the self-cleavage turned out to be 0.894.
With AACACUGCCAAUGCCGGUCCCAAGCCCGGAUUAAAGUGGGGGGGGCGG [A32U A40G], the self-cleavage is 0.108.
On to AACACUGCCAAUGCCGGUCCCAAGCCCGGAUAAAAGUGGAGGGAGCCG [G44A G47C], for which the self-cleavage stood at 0.828.
Next, AACACUGCCAAUGCCGGUCCCAAGCCCGGAUAAAAGCGCAGGGGGCGG [U37C G39C]: 0.0703.
Next, AACACUGCCAAUGCCGGUCCCAAGCCCGGACAACAGUGGAGGGGGCGG [U31C A34C]: 0.196.
AACACUGCCAACGCCGGUCCCAAGCCCGGAUAAAAGUGGAGGGGGCGC [U12C G48C]: the self-cleavage amounted to 1.18.
Take AACACGGCCAAUGCCGGUCCAAAGCCCGGAUAAAAGUGGAGGGGGCGG [U6G C21A]: the self-cleavage amounted to 0.0289.
On to AACACUGCCAAUGCCGGUCCCAAGCCCGGAUAAAAGUGGAGGGGGUGA [C46U G48A], for which the self-cleavage worked out at 0.885.
The result for ACCACUGCCAAUGCCGGUCCCAAGCCCGGGUAAAAGUGGAGGGGGCGG [A2C A30G] reads 0.105; that for AACACUGCCAAUGUCGGUCCCAAGCCCGGAUAAAAGUAGAGGGGGCGG [C14U G38A], 1.02; that for AACACUGCCAAUGCCGGUCCCAAGCCCGGAUAAAAGUGGAGCGGGCAG [G42C G47A], 0.43.
The result for AACACUGCCGAUGCCGGUCCCAAGCCCGGAUAAAAGUGGAGGGGGAGG [A10G C46A] reads 0.939.
On to AACACUCCCAAUGCCGGUCCCAAGACCGGAUAAAAGUGGAGGGGGCGG [G7C C25A], for which the self-cleavage was found to be 0.0795.
AACCCUGCCAAUGCCGGUCCCAAGCCCGGAUAAAAGUGGAGGGGGCGC [A4C G48C]: the self-cleavage came to 0.31.
The result for AACUCUGCAAAUGCCGGUCCCAAGCCCGGAUAAAAGUGGAGGGGGCGG [A4U C9A] reads 0.0614; that for AACACUGCCAAUGCCGGUCCCGAGCCCGGAUAAAAGUGGAGGGGUCGG [A22G G45U], 0.143; that for AACACUGCCAAUGCCGGUCCCAAGCCCGGAUAAAAGUGGAGAGCGCGG [G42A G44C], 0.178.
With AACACUGCCAAUGCGGGUCCGAAGCCCGGAUAAAAGUGGAGGGGGCGG [C15G C21G], the self-cleavage stood at 0.0959.
Regarding AACACUGCCAAUGCCGGUCCGAUGCCCGGAUAAAAGUGGAGGGGGCGG [C21G A23U], the self-cleavage came to 0.032.
In the case of AACACUGCCAAUGCCGGUCCCAAGCCCGGGUAAACGUGGAGGGGGCGG [A30G A35C], the self-cleavage amounted to 0.792.
With AACACUGCCAAUGCCGCUCCCAAGCCCGGAUAAAAGUGGAGGCGGCGG [G17C G43C], the self-cleavage stood at 0.0789.
As to AACACUGCCAAUGCCGGUCCCAAGCCCGGAUAUAAGUGGAGGGGGCGC [A33U G48C], the self-cleavage was 1.08.
As to AACACUGCAAAUGCCGGUCCCAAGCCCGGAAAAAAGUGGAGGGGGCGG [C9A U31A], the self-cleavage came to 0.72.
Regarding AACACUGCCAAUGCUCGUCCCAAGCCCGGAUAAAAGUGGAGGGGGCGG [C15U G16C], the self-cleavage was 0.464.
The result for AACACUGCCAAUGCCGGUCCCAAGCACGGAUAAAAGGGGAGGGGGCGG [C26A U37G] reads 0.17; that for AACACUGCCAAUGCCGGUCCCAACCCGGGAUAAAAGUGGAGGGGGCGG [G24C C27G], 0.134; that for AACACGGCCAAUGCCGGUCCCAAGCCCGUAUAAAAGUGGAGGGGGCGG [U6G G29U], 0.173.
Consider AACACUGCCAGUGCCUGUCCCAAGCCCGGAUAAAAGUGGAGGGGGCGG [A11G G16U], for which the self-cleavage was found to be 0.875.
The result for CACACUGCCAAUGCCGGUCCCAAGCCCGGAUAAAAGUGGAGGGGGCGC [A1C G48C] reads 0.168; that for AACACUGCCAAUGCCGGUCCCAAGCCCGGAUAAAAGUGGUUGGGGCGG [A40U G41U], 0.145.
For AACACUGCCAAUGCCGGUCCCGAGCCCGGAUAAAAGUGGCGGGGGCGG [A22G A40C], the self-cleavage was found to be 0.11.
For the variant AACACUGCCAAUGCUGGUCCCAAGGCCGGAUAAAAGUGGAGGGGGCGG [C15U C25G], the self-cleavage is 0.414.
Next, AACACUGCCGAUGCCGGUCCCAAGCCCGGAUAAAAGUGGAGGGAGCGG [A10G G44A]: 0.881; AACACUGCCAAUGCCGGUCCCAAGCCCCGAUAAAAGUCGAGGGGGCGG [G28C G38C]: 0.531; AACACGGCGAAUGCCGGUCCCAAGCCCGGAUAAAAGUGGAGGGGGCGG [U6G C9G]: 0.171.
For AACACUGCCAAUGCCGGUCCCCAGACCGGAUAAAAGUGGAGGGGGCGG [A22C C25A], the self-cleavage came out at 0.12.
For the variant AACACUGCCUAUGCCGGUCCCAAGCCUGGAUAAAAGUGGAGGGGGCGG [A10U C27U], the self-cleavage stood at 0.93.
Next, AACACUGCCAAUGCUGGUCUCAAGCCCGGAUAAAAGUGGAGGGGGCGG [C15U C20U]: 0.845; AACACUGCCAAUGCCGGUCCCAAGCCUGGUUAAAAGUGGAGGGGGCGG [C27U A30U]: 0.758.
AACACUGCCAUUGCCGGUCCCAAGCCCGGAUAAAAGUGGAGGGCGCGG [A11U G44C]: the self-cleavage was found to be 0.969.
Regarding AACACUGCCAAUGCCGGUCCCAAGCCCGGAUAACAGUGGAGGGGCCGG [A34C G45C], the self-cleavage is 0.0937.
The result for AACUCUGCCAAUGCCGGCCCCAAGCCCGGAUAAAAGUGGAGGGGGCGG [A4U U18C] reads 0.027.
For AACACUGCCAAUGACGGUCCCAAGCCCGGAGAAAAGUGGAGGGGGCGG [C14A U31G], the self-cleavage was determined as 0.942.
AACACUGCCACUGCCGGUCCCACGCCCGGAUAAAAGUGGAGGGGGCGG [A11C A23C]: the self-cleavage is 0.0766.
For the variant AACACUGCCAAUGGCGGUCCCAAGCCCGGUUAAAAGUGGAGGGGGCGG [C14G A30U], the self-cleavage came to 0.146.
With AACACUGCCAAUUCCGGUCCCAAGCCCGGAUAACAGUGGAGGGGGCGG [G13U A34C], the self-cleavage is 0.083.
In the case of AACACUACCAAUGCCGGUCCCGAGCCCGGAUAAAAGUGGAGGGGGCGG [G7A A22G], the self-cleavage amounted to 0.0675.
Regarding AACACUGCCAAUGCCGCUCCCAAUCCCGGAUAAAAGUGGAGGGGGCGG [G17C G24U], the self-cleavage is 0.0734.
As to AACACUGCCAAGGCCUGUCCCAAGCCCGGAUAAAAGUGGAGGGGGCGG [U12G G16U], the self-cleavage stood at 0.937.
Consider AACACUGCCAAUGCCGGUCCCAAGGCCAGAUAAAAGUGGAGGGGGCGG [C25G G28A], for which the self-cleavage came out at 0.346.
As for AACACUGUCAAUGCCGGUCUCAAGCCCGGAUAAAAGUGGAGGGGGCGG [C8U C20U], the self-cleavage came to 0.308.
For the variant AACACUGCCAAUGCCGGUCCCAAGCCCGGAUAAAAGUGGAGGGGGCGC [G48C], the self-cleavage amounted to 1.15.
In the case of AACACGGCCAAUGCCGGUCCCAAGCGCGGAUAAAAGUGGAGGGGGCGG [U6G C26G], the self-cleavage stood at 0.0499.
